The values that follow come from patent US20250289896A1 (ANALYTICAL BIOSCIENCES SHANGHAI, published 2025).

The target of assay [1] is T1, Human CCR8 (C-C chemokine receptor type 8) (human, UniProt P51685 1-355).
T1 construct: overexpressed on HEK293T (293T-hCCR8), Jurkat-hCCR8 and CHEM1-CCR8 cells; also called hCCR8
Description: flow cytometry, human PBMC-derived activated Tregs. As for the experimental part: (§1) 2.3 Cell-based binding assays for human PBMC-derived activated Tregs Binding specificity of the anti-CCR8 antibodies was tested by FACS using human PBMC-derived activated Tregs. In summary, Tregs were expanded and activated following the manufacturer's protocol (130-095-345, Miltenyi). Briefly, cryopreserved 7-day expanded human PBMC-derived Tregs (SailyBio) were thawed and rested overnight. They were then restimulated with CD3/CD28 MACSiBeads in the presence of rhIL-2 for 24 hours. […] Afterwards, the activated Tregs were plated at 20K/well in 96-well plates, spun down and the supernatant was removed. Cell pellets were then resuspended and incubated with 100 μl of various concentrations of mAbs or a human lgG1 isotype control antibody (biolegend #403501) at 37° C. for 30 min. The final concentrations of antibodies were indicated on x-axis in each figure. The cells were washed three times with FACS buffer (PBS containing 0.5 mg/ml BSA and 1 mM EDTA). PE-labeled goat-anti-human IgG (Invitrogen) diluted in FACS buffer was added to cell pellets as secondary antibodies at a concentration of 3 μg/ml, and the samples were incubated at 4° C. for 30 min. Samples were washed three times with FACS buffer and analyzed using a Cytek Aurora cytometer. Data were analyzed with GraphPad Prism 8.0 software to determine EC50 values.

Assay [2] concerns the target T1, Human CCR8 (C-C chemokine receptor type …). Description: flow cytometry, Hut78 cells (endogenous human CCR8). The protocol:
(§2) Binding specificity of the anti-CCR8 antibodies (mAbs) was tested by FACS using several cell lines. […] The binding titration of the anti-CCR8 antibodies to CCR8 transfectants was performed by serial dilution of antibodies. The diluted antibody (50 μl) in flow cytometry buffer (PBS, 0.5% BSA, 1 mM EDTA) was incubated with cells (50 μl) at a concentration of 2 million cells/ml on ice for 30 min. After two washes with flow cytometry buffer, bound antibody was detected with Alexa647-labeled F(ab′)2 fragment goat anti-human IgG (Jackson ImmunoResearch #709-606-149) (1:500 dilution) for 20 minutes on ice. The fluorescence was measured on a Cytek Aurora cytometer, after two washes with flow cytometry buffer. The data were analyzed with GraphPad Prism 8.0 software to determine EC50 values.

In a further assay the target is T2, mCCR8 (UniProt P56484 1-353, limits assumed).
T2 construct: whole, on cells; also called 293T-mCCR8
T2 sequence (looked up): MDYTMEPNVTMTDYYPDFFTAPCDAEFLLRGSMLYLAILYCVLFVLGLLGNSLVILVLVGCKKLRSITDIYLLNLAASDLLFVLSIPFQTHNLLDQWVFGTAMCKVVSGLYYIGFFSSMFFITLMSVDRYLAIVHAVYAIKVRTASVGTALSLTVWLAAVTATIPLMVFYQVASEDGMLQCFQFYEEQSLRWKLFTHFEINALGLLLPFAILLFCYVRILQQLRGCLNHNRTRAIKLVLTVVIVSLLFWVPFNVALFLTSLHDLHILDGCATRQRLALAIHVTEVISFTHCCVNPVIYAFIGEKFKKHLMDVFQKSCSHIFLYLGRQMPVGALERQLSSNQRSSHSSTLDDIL
Briefly: flow cytometry, 293T cells with mCCR8. As for the experimental part:
as §2

For assay [3], the target named is T1, Human CCR8 (C-C chemokine receptor type …). Briefly: flow cytometry, 293T cells overexpressing human CCR8. As for the experimental part: as §2
The target of assay [4] is T3, cynomolgus macaque CCR8 (cynomolgus macaque, UniProt G7NYJ2 1-355).
T3 construct: whole, on cells; Overexpressed on 293T cells (293T-cCCR8) and Jurkat cells (Jurkat-cynoCCR8); also called cCCR8; cyno CCR8
T3 sequence (G7NYJ2 entry or part of it): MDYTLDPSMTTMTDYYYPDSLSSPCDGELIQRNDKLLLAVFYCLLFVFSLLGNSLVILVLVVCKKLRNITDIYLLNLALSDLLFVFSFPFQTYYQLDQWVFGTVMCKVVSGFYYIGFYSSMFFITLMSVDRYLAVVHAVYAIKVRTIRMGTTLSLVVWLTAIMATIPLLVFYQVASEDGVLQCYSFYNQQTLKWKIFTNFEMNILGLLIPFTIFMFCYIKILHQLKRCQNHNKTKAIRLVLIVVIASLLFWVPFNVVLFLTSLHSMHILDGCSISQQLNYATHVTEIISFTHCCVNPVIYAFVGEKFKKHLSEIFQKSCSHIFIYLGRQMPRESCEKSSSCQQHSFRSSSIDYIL
Description: flow cytometry, 293T cells overexpressing cynomolgus CCR8. As for the experimental part: as §2

Assay [5] addresses T1, Human CCR8 (C-C chemokine receptor type …). Description: cell-based or functional assay.
Assay [6] addresses T3, cynomolgus macaque CCR8. Description: cell-based or functional assay.
Assay [7] deals with T1, Human CCR8 (C-C chemokine receptor type …). Description: cell-based or functional assay. This is another data set of the same source.
Assay [8] shares this target. Description: flow cytometry, human PBMC-derived activated Tregs. The protocol: as §1
Especially, FIG. 6 and Table 6 show the titration of anti-CCR8 mAbs ABC138-H2.hu13.IgG1.SDIE, ABC025-H2G.SDIE and ABC080.chH2.SDIE to human PBMC-derived activated Treg cells. ABC138-H2.hu13.IgG1.SDIE was developed by mutagenesis in the light chain CDRs of ABC025.H2G.SDIE, which is the humanized clone of ABC080.chH2.SDIE.
This is another data set of the same source.

T1 sequence (P51685 whole entry): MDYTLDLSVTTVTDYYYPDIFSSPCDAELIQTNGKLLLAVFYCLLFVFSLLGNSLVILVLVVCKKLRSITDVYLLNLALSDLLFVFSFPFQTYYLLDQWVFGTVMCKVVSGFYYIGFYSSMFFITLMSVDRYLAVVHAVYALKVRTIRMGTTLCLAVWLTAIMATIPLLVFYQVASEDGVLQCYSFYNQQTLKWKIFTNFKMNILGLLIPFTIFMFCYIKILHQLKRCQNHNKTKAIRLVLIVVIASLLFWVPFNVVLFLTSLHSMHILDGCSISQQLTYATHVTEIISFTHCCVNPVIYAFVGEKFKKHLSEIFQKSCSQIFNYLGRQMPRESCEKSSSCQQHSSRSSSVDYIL

B1: ABC084.AF (antibody, human IgG1, kappa, V domains shown)
VH: EVQLLESGGGLVQPGGSLRLSCAASGFTFSSYGMHWVRQAPGKGLEWVSAINWNGGSTGYADSVKGRFTISRDNSKNTLYLQMNSLRAEDTAVYYCARGHHSGYDGRFFDYWGQGTLVTVSS
VL: QSVLTQPPSVSGAPGQRVTISCTGSSSNIGAGYNVHWYQQLPGTAPKLLIYTNNRRPSGVPDRFSGSKSGTSASLAISGLRSEDEADYYCAAWDASLSGWVFGGGTKLTVLR
notes: Prior art antibody (PCT/EP2021/067504)
B1 returned an EC50 in [1] of 33.8 nM.

B2: ABC820 (antibody, human IgG1, kappa, V domains shown)
VH: EVQLVESGGGLVQPGRSLKLSCAASGFTFSDYYMAWVRQAPKKGLEWVASISYEGRSTYYGDSVKGRFTISRDDEKSILYLQMSGPRSEDTATYYCARQDLYYGRNPSWFLDFWGPGTMVTVSS
VL: IVMTQSPTSMSISVGGRVTMNCKASQNVGSNVDWFQQKTGQSPKLLIYKTTSRYTGVPDRFTGSGSKTDFTFTISNMQAEDLAVYYCLQSNSFPYTFGAGTKLELKR
Take B2: the figures for the EC50 (in assay [2]; in [3]; with cynomolgus macaque CCR8 [4]) were 19.4 nM, 0.103 nM and 0.09 nM, respectively. Further, the binding result with mCCR8 is “no binding”.

B3: ABC048-B1.hu11.IgG1.SDIE (antibody, V domains shown)
VH: EVQLVESGGGLVQPGGSLKLSCAASGFTFNTYAMNWVRQASGKGLEWVARIRSKSNNYATYYADSVKDRFTISRDDSKNTLYLQMNSLKTEDTAVYYCVREVRRDYALDQWGQGTMVTVSS
VL: DIVMTQSPLSLPVTPGEPASISCRSSKSLLHSNGNTYLYWFLQKPGQSPQLLIYRMSNLASGVPDRFSGSGSGTDFTLKISRVEAEDVGVYYCMQHVEYPFTFGGGTKLEIKR
notes: IgG1 with SDIE mutations, by its name; also called ABC048-B1.hull.IgG1.SDIE
In the case of B3, in assay [1], the EC50 is 0.521 nM. In other words, the sub-nanomolar range.

B4: ABC078.AF (antibody, human IgG1, kappa, V domains shown)
VH: QVQLVQSGAEVKKPGASVKVSCKASGYTFTDSEMHWVRQATGQGLEWMGAIQPETGGTAYNQKFKARVTMTRDTSISTAYMELSSLRSEDTAVYYCARRRRNFDYWGQGTLVTVSS
VL: DIVMTQTPLSLSVTPGQPASISCRSSQSLFHSSGNTYLHWYLQKPGQPPQLLIYKVSNRFSGVPDRFSGSGSGTDFTLKISRVEAEDVGVYYCSQSTHVPFTFGQGTKLEIKR
notes: Prior art antibody (PCT/US2021/023430); also called BMS-986340
The molecule B4 displayed an EC50 in assay [1] of 0.729 nM. In addition, the “ADCC killing of Hut78 cells, IC50 (pM)” value in assay [5] was determined as 0.637 pM. The “ADCC killing of Jurkat-cynoCCR8 cells, IC50 (pM)” value with cynomolgus macaque CCR8 [6] came out at 346 pM. In assay [7], the “ADCC killing of Jurkat-hCCR8 cells, IC50 (pM)” value came to 2.79 pM.

B5: ABC078 (antibody, V domains shown)
VH: QVQLVQSGAEVKKPGASVKVSCKASGYTFTDSEMHWVRQATGQGLEWMGAIQPETGGTAYNQKFKARVTMTRDTSISTAYMELSSLRSEDTAVYYCARRRRNFDYWGQGTLVTVSS
VL: DIVMTQTPLSLSVTPGQPASISCRSSQSLFHSSGNTYLHWYLQKPGQPPQLLIYKVSNRFSGVPDRFSGSGSGTDFTLKISRVEAEDVGVYYCSQSTHVPFTFGQGTKLEIKR
Consider B5, for which the EC50 was determined as 0.648 nM in assay [2] and 0.0282 nM in assay [3]. Also, the binding result in the assay with mCCR8 and in the assay with cynomolgus macaque CCR8 [4] was “no binding” each time.

B6: ABC814 (antibody, human IgG1, kappa, V domains shown)
VH: EVQLVESGGGLVQPGRSLKLSCVASGFTFSDYYMAWVRQAPKKGLEWVASISYEGRSTYYGDSVKGRFTISRDDAKSTLYLQMNSLRSEDTATYYCARQDLYYGHKSYWYLDFWGPGTMVTVSS
VL: DIVMTQSPTSMSISVGDRVTMNCKASQNVGSNVDWYQQKPGQSPKLLIYKTSSRSTGVPDRFTGSGSRTDFTFTITNMQAEDLAVYYCMQSNSYPFTFGAGTKLELKR
Turning to B6, the figures for the EC50 (in assay [2]; in [3]; in the assay with cynomolgus macaque CCR8 [4]) were 11.6 nM, 0.0828 nM and 0.101 nM, respectively. Besides, in the assay with mCCR8, the binding result is listed as “no binding”.

B7: ABC519 (antibody, human IgG1, kappa, V domains shown)
VH: EVHLVESGGGFVRPGRSMKLSCAASGFPFSFYGMAWVLQTPTKGLEWVASISYDGSDTYYRDSVKGRFAISRDNAKNTLYLQMESLRSEDTATFYCAKTSGYGSFDYWGQGTLVTVSS
VL: DIVMTQSPVSLPVSFGGQASISCRSSRSLVHRNGDTYLHWYLQKPGQSPQLLIYRVSNRFAGVPDRFSGSGSGTDFTLKISRVESEDLGLYYCLQGTHLPPTFGSGTKLEIKR
Regarding B7, the binding result (in assay [2]; with mCCR8) was “no binding” each time. Besides, the response with cynomolgus macaque CCR8 [4] was half-maximal at 0.25 nM (EC50).

B8: ABC025-H2G.SDIE (antibody, human IgG1, kappa)
heavy: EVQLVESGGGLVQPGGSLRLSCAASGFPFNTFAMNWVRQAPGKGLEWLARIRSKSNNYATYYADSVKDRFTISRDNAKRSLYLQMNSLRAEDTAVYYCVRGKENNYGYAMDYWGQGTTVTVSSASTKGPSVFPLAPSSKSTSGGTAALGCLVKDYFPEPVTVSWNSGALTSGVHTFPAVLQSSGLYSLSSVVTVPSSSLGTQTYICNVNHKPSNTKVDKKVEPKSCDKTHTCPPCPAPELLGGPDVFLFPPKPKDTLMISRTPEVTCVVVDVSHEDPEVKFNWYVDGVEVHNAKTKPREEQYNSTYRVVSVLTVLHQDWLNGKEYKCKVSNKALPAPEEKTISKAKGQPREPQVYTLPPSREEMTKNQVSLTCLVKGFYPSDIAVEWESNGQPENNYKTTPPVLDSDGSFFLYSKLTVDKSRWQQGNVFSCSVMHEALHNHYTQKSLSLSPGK
light: DIVMTQSPLSLPVTPGEPASISCRSSQSLLHSNANTYLYWFLQKPGQSPQLLIYRMSNLASGVPDRFSGSGSGTDFTLKISRVEAEDVGVYYCMQHLEYPFTFGQGTKLEIKRTVAAPSVFIFPPSDEQLKSGTASVVCLLNNFYPREAKVQWKVDNALQSGNSQESVTEQDSKDSTYSLSSTLTLSKADYEKHKVYACEVTHQGLSSPVTKSFNRGEC
notes: Humanized clone of ABC080.chH2.SDIE; Fc with SDIE mutation
Take B8: the EC50 in [1] was 1.78 nM; in assay [8] it was 0.38 nM.

B9: ABC138-H2.hu13.IgG1.SDIE (antibody, V domains shown)
VH: EVQLVESGGGLVQPGGSLRLSCAASGFPFNTFAMNWVRQAPGKGLEWLARIRSKSNNYATYYADSVKDRFTISRDNAKRSLYLQMNSLRAEDTAVYYCVRGKENNYGYAMDYWGQGTTVTVSS
VL: DIVMTQSPLSLPVTPGEPASISCRSSKSLLHSNANTYLYWFLQKPGQSPQLLIYRMSNLASGVPDRFSGSGSGTDFTLKISRVEAEDVGVYYCMQHVEYPFTFGGGTKLEIKR
notes: Developed by mutagenesis in the light chain CDRs of ABC025.H2G.SDIE; IgG1 with SDIE mutations; also called ABC0138.H2.Hu13.SDIE
Consider B9, for which the EC50 was determined as 0.102 nM in [2], 0.579 nM in assay [1], 0.105 nM in assay [8] and 0.0237 nM in assay [3]. In addition, the “ADCC killing of Hut78 cells, IC50 (pM)” value in assay [5] turned out to be 0.652 pM. Moreover, the binding result with mCCR8 and with cynomolgus macaque CCR8 [4] was “no binding” each time. Besides, the “ADCC killing of Jurkat-cynoCCR8 cells, IC50 (pM)” value with cynomolgus macaque CCR8 [6] amounted to 62.9 pM. For the same molecule, the “ADCC killing of Jurkat-hCCR8 cells, IC50 (pM)” value in assay [7] worked out at 2.09 pM.

B10: ABC523 (antibody, human IgG1, kappa, V domains shown)
VH: EVKLVESGGGLVQPGNSLTLSCVASGFTFSNYGMHWIRQAPKKGLEWIAMIYSDSSKMFYTDTVKGRFTISRDNSKNTLYLEMNSLRSEDTAMYYCAARDYGYKGAHYYVMDAWGQGASVTVSS
VL: DIQMTQSPSFLSASVGDRVTIICKSSQNINRYLNWYQQKLGEAPKLLIYNANNLQTGIPSRFSGGGSGTDFTFTIGSLRPEDVATYFCLQHKSWPYTFGPGTKLELKR
On to B10, for which the binding result (in [2]; in the assay with mCCR8) was “no binding” in each case. Besides, the response in the assay with cynomolgus macaque CCR8 [4] was half-maximal at 0.26 nM (EC50).

B11: ABC080.chH2.SDIE (antibody)
heavy: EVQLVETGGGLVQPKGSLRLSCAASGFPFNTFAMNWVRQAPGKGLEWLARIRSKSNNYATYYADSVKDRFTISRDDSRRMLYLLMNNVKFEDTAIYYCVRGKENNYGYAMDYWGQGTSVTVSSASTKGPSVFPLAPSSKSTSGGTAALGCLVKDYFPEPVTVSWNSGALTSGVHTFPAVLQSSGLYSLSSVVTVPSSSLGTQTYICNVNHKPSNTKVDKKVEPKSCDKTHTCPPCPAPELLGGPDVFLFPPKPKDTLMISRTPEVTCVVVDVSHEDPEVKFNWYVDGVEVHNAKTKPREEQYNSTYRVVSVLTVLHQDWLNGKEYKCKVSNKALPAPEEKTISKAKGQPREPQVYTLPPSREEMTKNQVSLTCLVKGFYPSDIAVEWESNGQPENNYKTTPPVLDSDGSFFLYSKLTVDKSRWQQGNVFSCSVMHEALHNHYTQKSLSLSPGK
light: DIVMTQAAPSVPVTPGESVSISCRSSQSLLHSNGNTYLYWFLQRPGQSPQLLIYRMSNLASGVPDRFSGSGSGTAFTLRISRVEAEDVGVYYCMQHLEYPFTFGIGTKLELKRTVAAPSVFIFPPSDEQLKSGTASVVCLLNNFYPREAKVQWKVDNALQSGNSQESVTEQDSKDSTYSLSSTLTLSKADYEKHKVYACEVTHQGLSSPVTKSFNRGEC
notes: Chimeric antibody with SDIE Fc; ABC025.H2G.SDIE is its humanized clone
Regarding B11, the EC50 in assay [8] is 0.38 nM; in [3], 0.135 nM.
